Reference: PMC5476825, “Towards repurposing the yeast peroxisome for compartmentalizing heterologous metabolic pathways” (Nature Communications, 2016)
Primed or numbered codes have the meaning given here. Ends that are not written are not given here. 5FAM′ = 5-carboxyfluorescein

T1: His6-Pex5c, C-terminal fragment (residues 295-612) of S. cerevisiae PEX5 (S. cerevisiae, UniProt P35056 295-612)
T1 construct: Pex5p (PEX5), PTS1 import receptor, S. cerevisiae, C-terminal fragment residues 295-612; Plasmid was a gift of Brooke M. Gardner; also called Pex5p C-terminal fragment; C-terminal truncation of Pex5p; not shown: His6, N-terminal, kept
T1 sequence (looked up): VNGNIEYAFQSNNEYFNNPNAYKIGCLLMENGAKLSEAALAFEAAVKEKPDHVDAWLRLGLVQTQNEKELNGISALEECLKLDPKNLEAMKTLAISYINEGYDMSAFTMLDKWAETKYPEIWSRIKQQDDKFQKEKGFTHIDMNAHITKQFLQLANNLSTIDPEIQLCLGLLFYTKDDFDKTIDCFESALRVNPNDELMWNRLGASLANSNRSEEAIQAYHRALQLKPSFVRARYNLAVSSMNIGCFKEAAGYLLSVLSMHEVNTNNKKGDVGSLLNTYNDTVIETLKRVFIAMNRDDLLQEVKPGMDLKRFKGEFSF


How the values were obtained:
[1] = target: T1, His6-Pex5c, C-terminal fragment …; experiment: fluorescence polarisation; competition: 375 nM Pex5c and 20 nM 5FAM-…, unlabelled … (4 mM to 3.8 nM) or … (0.5 mM to 0.47 nM) added; 50 mM HEPES pH 7.4, 100 mM NaCl, 0.05% Tween-20; equilibrated 16 h at 4 °C; fit with equation 17 of Roehrl et al.; settings: both partners purified
[2] = target: T1, His6-Pex5c, C-terminal fragment …; experiment: fluorescence polarisation; direct titration: His6-Pex5C from 6.5 uM downward in twofold increments against 20 nM 5FAM-…; 50 mM HEPES pH 7.4, 100 mM NaCl, 0.05% Tween-20; equilibrated 16 h at 4 °C; anisotropy converted to fraction bound; settings: both partners purified

| Binder | Kd [1] [nM] | Kd [2] [nM] |
| --- | --- | --- |
| DELYKGSKL (peptide that results from fusion of the canonical PTS1 (SKL) to the C-terminus of YFP; source: synthetic peptide, bought: Elim Biopharmaceuticals Inc) [PTS1 peptide (DELYKGSKL)] | 176000 ± 17300 |  |
| {5FAM′}-LGRGRRSKL (ePTS1: linker LGRGRR selected from a randomized six-residue linker library, followed by the canonical PTS1 SKL; also called fluorescein-tagged ePTS1 peptide; source: synthetic peptide, bought: Elim Biopharmaceuticals Inc) [5-Carboxyfluorescein-LGRGRRSKL] |  | 355 ± 6.38 |
| LGRGRRSKL (ePTS1: linker LGRGRR selected from a randomized six-residue linker library, followed by the canonical PTS1 SKL; also called enhanced PTS1; source: synthetic peptide, bought: Elim Biopharmaceuticals Inc) [ePTS1 peptide (LGRGRRSKL)] | 800 ± 100 |  |
